This assay deals with spike BA.1 antigens. The experiment in a line: ELISA (AUC).

Several values for one entry are separate records, joined by “and”; a condition that tells them apart may be missing. Identical values can stand only once.

B1: S626-161 (antibody, V domains shown)
VH: QLQLQESGPGLVKPSETLSLTCTVSGGSISSNNYYWGWIRQPPGKGLEWIGSIYYSGSTYYNPSLKSRVTMSVDTSKNQFSLKLSSVTAADTAVYHCARQGPNYYDRSGYYYVGPFDIWGQGTMVTVSS
VL: QSVLTQPPSVSAAPGQKVTISCSGSSSNIGNNSVSWYQHLPGTAPKLLIYENNERPSGIPDRFSGSKSGTSATLGITGLQTGDEADYYCETWDRSLSASFGTGTKVTVL
For B1, the fold reduced binding is 1.7 fold and 3.9 fold.

(Values after patent US20250026814A1.)
